Tests used:
Assay in all cases: double filter binding; 1 mM ciprofloxacin (modest effect); Double filter binding, 150 nM helicase hexamer, 4 nM ssDNA, 20 min inhibitor preincubation at 37 C; binding buffer not stated in the material (helicase buffer:)
Mcm467 = Mcm467 (UniProt P30665;P53091;P38132 1-933;1-1017;1-845); conditions: chain copies: 2;2;2; label: 5'-32P; single strand
[1] = target: SV40 large T antigen (TAg) (SV40, UniProt P03070 1-708); conditions: chain copies: 6; label: 5'-32P; single strand
Mcm2-7 = Mcm2-7 (UniProt P29469;P24279;P30665;P29496;P53091;P38132 1-868;1-971;1-933;1-775;1-1017;1-845); conditions: copies: 1;1;1;1;1;1; label: 5'-32P; single strand

Measured: binding result

Chain of Mcm467 (P30665 whole entry, chain 1 of 3): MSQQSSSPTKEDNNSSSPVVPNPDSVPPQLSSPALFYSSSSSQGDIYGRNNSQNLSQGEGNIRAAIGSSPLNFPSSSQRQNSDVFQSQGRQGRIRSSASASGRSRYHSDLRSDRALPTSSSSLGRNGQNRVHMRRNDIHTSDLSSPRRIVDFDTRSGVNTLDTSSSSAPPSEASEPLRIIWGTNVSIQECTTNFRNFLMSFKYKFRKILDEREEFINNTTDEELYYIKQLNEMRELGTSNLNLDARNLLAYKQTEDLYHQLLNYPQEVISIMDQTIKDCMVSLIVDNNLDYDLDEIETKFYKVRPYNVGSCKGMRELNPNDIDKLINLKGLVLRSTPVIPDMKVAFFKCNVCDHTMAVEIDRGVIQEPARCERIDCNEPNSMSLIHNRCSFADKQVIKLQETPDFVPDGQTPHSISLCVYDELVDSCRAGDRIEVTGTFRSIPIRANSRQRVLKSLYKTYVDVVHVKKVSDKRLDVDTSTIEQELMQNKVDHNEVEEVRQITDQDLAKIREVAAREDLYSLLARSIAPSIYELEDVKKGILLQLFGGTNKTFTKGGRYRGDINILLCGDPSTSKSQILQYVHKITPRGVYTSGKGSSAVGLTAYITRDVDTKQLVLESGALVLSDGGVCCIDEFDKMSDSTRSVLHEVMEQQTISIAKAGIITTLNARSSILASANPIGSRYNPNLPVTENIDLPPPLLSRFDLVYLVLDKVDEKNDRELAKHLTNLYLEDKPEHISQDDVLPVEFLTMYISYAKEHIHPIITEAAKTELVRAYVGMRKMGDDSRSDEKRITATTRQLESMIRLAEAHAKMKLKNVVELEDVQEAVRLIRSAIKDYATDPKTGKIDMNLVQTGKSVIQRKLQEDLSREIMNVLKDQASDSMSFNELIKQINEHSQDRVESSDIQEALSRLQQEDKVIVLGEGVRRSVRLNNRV
Chain of Mcm467 (P53091 whole entry, chain 2 of 3): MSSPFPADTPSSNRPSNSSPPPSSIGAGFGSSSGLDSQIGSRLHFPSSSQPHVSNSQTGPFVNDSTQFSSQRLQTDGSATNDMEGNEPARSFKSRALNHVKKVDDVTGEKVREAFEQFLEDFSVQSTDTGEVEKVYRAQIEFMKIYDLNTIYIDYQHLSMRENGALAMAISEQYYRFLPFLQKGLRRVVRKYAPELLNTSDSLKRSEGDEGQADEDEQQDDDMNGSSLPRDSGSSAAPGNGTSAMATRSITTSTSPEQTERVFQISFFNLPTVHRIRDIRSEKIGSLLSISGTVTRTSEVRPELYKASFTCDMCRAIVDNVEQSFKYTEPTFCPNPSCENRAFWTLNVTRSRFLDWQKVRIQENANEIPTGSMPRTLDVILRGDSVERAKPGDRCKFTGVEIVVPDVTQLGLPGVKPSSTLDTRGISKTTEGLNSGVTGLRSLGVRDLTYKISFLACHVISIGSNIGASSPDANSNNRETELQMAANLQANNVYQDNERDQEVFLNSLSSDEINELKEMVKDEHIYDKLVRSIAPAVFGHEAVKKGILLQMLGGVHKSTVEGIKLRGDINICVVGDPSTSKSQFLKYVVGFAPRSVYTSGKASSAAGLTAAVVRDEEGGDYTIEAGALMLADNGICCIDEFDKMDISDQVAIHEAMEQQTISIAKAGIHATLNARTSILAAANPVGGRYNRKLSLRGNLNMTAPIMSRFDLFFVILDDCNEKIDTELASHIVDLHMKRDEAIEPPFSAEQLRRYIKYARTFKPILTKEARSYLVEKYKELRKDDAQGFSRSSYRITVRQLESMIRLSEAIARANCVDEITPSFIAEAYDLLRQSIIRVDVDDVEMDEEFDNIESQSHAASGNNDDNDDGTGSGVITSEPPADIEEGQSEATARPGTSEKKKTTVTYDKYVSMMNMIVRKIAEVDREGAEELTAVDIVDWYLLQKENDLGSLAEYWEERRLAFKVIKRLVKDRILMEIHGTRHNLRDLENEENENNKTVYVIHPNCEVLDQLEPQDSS
Chain of Mcm467 (P38132 whole entry, chain 3 of 3): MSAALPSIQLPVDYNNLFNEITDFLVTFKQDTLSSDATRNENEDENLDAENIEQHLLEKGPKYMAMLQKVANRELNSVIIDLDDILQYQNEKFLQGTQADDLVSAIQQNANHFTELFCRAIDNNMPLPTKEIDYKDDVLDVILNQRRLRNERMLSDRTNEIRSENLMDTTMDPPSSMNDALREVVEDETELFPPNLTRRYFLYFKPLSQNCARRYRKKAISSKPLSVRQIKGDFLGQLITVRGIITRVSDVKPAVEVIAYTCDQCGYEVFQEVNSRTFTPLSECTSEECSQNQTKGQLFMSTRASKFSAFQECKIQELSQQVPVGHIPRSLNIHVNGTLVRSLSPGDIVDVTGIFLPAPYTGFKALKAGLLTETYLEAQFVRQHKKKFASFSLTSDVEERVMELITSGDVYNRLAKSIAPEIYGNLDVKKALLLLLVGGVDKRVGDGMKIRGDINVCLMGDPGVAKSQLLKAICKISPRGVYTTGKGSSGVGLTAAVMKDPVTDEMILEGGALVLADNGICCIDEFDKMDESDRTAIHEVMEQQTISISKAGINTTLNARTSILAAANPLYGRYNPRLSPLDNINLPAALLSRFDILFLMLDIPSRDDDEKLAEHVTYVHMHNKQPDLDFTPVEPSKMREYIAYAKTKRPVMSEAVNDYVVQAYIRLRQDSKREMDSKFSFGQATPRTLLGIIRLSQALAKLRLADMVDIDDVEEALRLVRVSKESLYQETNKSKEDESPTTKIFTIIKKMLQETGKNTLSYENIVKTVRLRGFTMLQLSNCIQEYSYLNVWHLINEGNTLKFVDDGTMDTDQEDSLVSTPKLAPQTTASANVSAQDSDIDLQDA
Chain of SV40 large T antigen (TAg) (P03070 whole entry): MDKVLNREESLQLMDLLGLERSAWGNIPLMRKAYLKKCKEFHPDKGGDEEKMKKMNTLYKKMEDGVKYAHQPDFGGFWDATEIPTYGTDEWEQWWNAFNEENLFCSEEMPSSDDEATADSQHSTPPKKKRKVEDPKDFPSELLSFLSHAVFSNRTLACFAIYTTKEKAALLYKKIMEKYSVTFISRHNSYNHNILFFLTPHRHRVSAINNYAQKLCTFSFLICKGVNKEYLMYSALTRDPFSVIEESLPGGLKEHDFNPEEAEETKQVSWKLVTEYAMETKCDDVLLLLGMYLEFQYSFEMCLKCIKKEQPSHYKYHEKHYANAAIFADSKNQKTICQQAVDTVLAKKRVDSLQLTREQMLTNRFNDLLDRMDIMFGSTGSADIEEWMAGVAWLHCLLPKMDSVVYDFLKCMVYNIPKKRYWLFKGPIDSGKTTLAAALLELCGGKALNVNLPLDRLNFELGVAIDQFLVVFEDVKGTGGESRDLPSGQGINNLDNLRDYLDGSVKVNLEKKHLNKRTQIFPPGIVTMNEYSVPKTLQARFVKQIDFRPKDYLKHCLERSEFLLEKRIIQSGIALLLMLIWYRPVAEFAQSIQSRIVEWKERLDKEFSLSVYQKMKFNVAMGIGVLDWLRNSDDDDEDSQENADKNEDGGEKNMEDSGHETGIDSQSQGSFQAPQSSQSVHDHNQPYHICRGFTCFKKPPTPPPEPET

TGTCTAATCCCGAAAGGCCCTGCCACTGAAATCAACACCTAAAGCATTGA (ssDNA) [oligo 826]
binds: all assays above

— paper PMC3791872, “Ciprofloxacin is an inhibitor of the Mcm2-7 replicative helicase”
